Read-outs that look alike come from different tables or passages of the source. Blank lines part the entries; values can stand above or below the binder they belong to.
Experiments:
[1] = target: human Sirpα-V1 recombinant protein (human) (UniProt P78324); test: ELISA
[2] = target: human Sirpα-V1-hFc (human) (UniProt P78324); test: blocking ELISA: hSirpα (dimer) to hCD47
[3] = target: human Sirpα-V1-his (human) (UniProt P78324); test: blocking ELISA: hSirpα to hCD47 (dimer)
[4] = target: human Sirpα-V1-his (human) (UniProt P78324); test: blocking ELISA: hSirpα-V1-his, hCD47-Fc (dimer)
[5] = target: human Sirpα-V1-hFc (human) (UniProt P78324); test: blocking ELISA: hSirpα-V1-hFc (dimer), hCD47-his
[6] = target: human Sirpα-V1 recombinant protein (human) (UniProt P78324); test: ELISA, subclone supernatant
[7] = target: human Sirpα-V2-his (human); test: ELISA, subclone supernatant
[8] = target: human Sirpα-V1-his (human) (UniProt P78324); test: blocking ELISA: hSirpα to hCD47 (dimer); remark: listed apart in the source
[9] = target: human Sirpα-V1 recombinant protein (human) (UniProt P78324); test: ELISA; remark: listed apart in the source
[10] = target: human Sirpα-V2-his (human); test: ELISA
[11] = target: Cyno Sirpα L933 (cynomolgus); test: ELISA
Cyno Sirpα L933 (cynomolgus), sequence (chain, as listed by the source): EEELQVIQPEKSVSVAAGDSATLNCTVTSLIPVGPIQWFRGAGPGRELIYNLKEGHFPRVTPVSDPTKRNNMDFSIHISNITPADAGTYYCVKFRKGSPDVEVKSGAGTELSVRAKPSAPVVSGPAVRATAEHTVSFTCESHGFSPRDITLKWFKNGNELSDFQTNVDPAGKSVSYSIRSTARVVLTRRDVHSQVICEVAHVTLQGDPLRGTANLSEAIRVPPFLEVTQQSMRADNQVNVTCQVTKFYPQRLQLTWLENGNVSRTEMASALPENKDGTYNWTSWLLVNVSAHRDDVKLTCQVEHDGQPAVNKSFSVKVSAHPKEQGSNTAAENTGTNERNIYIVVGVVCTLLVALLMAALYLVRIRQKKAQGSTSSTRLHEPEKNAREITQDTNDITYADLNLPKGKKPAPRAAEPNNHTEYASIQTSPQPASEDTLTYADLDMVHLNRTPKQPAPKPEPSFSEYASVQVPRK

[12] = target: Cyno Sirpα L936 (cynomolgus); test: ELISA
Cyno Sirpα L936 (cynomolgus), sequence (chain, as listed by the source): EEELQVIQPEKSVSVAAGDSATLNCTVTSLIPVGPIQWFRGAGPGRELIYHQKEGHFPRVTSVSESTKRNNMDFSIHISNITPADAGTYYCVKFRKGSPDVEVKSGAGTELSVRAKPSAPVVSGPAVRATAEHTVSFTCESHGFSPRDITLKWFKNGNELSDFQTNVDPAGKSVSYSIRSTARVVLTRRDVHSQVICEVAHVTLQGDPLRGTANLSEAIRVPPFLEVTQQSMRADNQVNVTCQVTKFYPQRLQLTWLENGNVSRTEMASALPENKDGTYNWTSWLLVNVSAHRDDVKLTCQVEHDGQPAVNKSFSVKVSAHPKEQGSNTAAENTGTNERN

[13] = target: Cyno Sirpα L937 (cynomolgus); test: ELISA
Cyno Sirpα L937 (cynomolgus), sequence (chain, as listed by the source): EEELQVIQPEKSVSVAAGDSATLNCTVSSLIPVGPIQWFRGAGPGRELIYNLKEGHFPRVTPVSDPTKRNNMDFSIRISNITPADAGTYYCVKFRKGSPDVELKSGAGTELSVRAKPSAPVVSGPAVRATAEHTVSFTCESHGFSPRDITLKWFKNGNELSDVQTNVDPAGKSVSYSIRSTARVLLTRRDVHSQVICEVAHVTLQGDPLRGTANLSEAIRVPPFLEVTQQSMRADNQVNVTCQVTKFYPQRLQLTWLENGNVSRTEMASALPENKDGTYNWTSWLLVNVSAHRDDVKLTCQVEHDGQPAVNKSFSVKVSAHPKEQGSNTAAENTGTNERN

[14] = target: Cyno Sirpα L932 (cynomolgus); test: ELISA
Cyno Sirpα L932 (cynomolgus), sequence (chain, as listed by the source): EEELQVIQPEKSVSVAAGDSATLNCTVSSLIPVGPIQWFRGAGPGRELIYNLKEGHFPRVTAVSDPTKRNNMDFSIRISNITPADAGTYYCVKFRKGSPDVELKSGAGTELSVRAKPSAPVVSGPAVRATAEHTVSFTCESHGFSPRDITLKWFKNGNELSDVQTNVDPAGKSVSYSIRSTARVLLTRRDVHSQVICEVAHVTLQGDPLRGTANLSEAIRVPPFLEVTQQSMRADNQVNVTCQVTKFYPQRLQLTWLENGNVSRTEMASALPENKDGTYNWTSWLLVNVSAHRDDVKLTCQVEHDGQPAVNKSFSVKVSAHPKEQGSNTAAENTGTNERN

[15] = target: human Sirpα-V1-hFc (human) (UniProt P78324); test: blocking ELISA: hSirpα (dimer) to hCD47; remark: listed apart in the source

EC50 [1]: 0.073 nM
B1: mab14-h2 (antibody, V domains shown)
VH: QVQLVQSGAEVKKPGASVKVSCKASGYNFNIYWINWVKQAPGQGLEWIGNIYPSSISTNYNEKFKTKATLTVDKSTSTVYMEFSSLRSEDTAVYYCARSEGTYYGGRYEGDWFGYWGQGTLVTVSS
VL: DIQMTQSPSSLSASVGDRVTITCRASQDIRNYLNWYQQKPGGTVKLLIYFTSTLHSGVPSRFSGSGSGTDYTLTISSLQPEDFATYYCQQGNTLPWTFGGGTKVEIKR

EC50 [1]: 0.081 nM
B2: mab14-h7 (antibody, V domains shown)
VH: QVQLVQSGAEVKKPGASVKVSCKASGYNFNIYWINWVKQAPGQGLEWIGNIYPSSISTNYNEKFKTKATLTVDTSTSTVYMELSSLRSEDTAVYYCARSEGTYYGGRYEGDWFGYWGQGTLVTVSS
VL: DIQMTQSPSSLSASVGDRVTITCRASQDIRNYLNWYQQKPGGTVKLLIYFTSTLHSGVPSRFSGSGSGTDYTLTISSLQPEDFATYYCQQGNTLPWTFGGGTKVEIKR

EC50 [1]: 0.088 nM
B3: mab14-h4 (antibody, V domains shown)
VH: QVQLVQSGAEVKKPGASVKVSCKASGYNFNIYWINWVRQAPGQGLEWIGNIYPSSISTNYNEKFKTRATLTVDTSTSTVYMELSSLRSEDTAVYYCARSEGTYYGGRYEGDWFGYWGQGTLVTVSS
VL: DIQMTQSPSSLSASVGDRVTITCRASQDIRNYLNWYQQKPGGTVKLLIYFTSTLHSGVPSRFSGSGSGTDYTLTISSLQPEDFATYYCQQGNTLPWTFGGGTKVEIKR

EC50 [1]: 0.095 nM
B4: mab14-h6 (antibody, V domains shown)
VH: QVQLVQSGAEVKKPGASVKVSCKASGYNFNIYWINWVKQAPGQGLEWIGNIYPSSISTNYNEKFKTRATLTVDTSTSTVYMELSSLRSEDTAVYYCARSEGTYYGGRYEGDWFGYWGQGTLVTVSS
VL: DIQMTQSPSSLSASVGDRVTITCRASQDIRNYLNWYQQKPGGTVKLLIYFTSTLHSGVPSRFSGSGSGTDYTLTISSLQPEDFATYYCQQGNTLPWTFGGGTKVEIKR

EC50 [1]: 0.061 nM
IC50 [2]: 8.99 nM
IC50 [3]: 8.47 nM
B5: mab14-h5 (antibody, V domains shown)
VH: QVQLVQSGAEVKKPGASVKVSCKASGYNFNIYWINWVRQAPGQGLEWIGNIYPSSISTNYNEKFKTRATLTVDKSTSTVYMELSSLRSEDTAVYYCARSEGTYYGGRYEGDWFGYWGQGTLVTVSS
VL: DIQMTQSPSSLSASVGDRVTITCRASQDIRNYLNWYQQKPGGTVKLLIYFTSTLHSGVPSRFSGSGSGTDYTLTISSLQPEDFATYYCQQGNTLPWTFGGGTKVEIKR

EC50 [1]: 0.103 nM
B6: mab14-h3 (antibody, V domains shown)
VH: QVQLVQSGAEVKKPGASVKVSCKASGYNFNIYWINWVRQAPGQGLEWMGNIYPSSISTNYNEKFKTRATLTVDTSTSTVYMELSSLRSEDTAVYYCARSEGTYYGGRYEGDWFGYWGQGTLVTVSS
VL: DIQMTQSPSSLSASVGDRVTITCRASQDIRNYLNWYQQKPGGTVKLLIYFTSTLHSGVPSRFSGSGSGTDYTLTISSLQPEDFATYYCQQGNTLPWTFGGGTKVEIKR

ELISA value of the blocking assay [4]: 0.42
ELISA value of the blocking assay [5]: 0.069
ELISA value, activity of binding [6]: 1.27
ELISA value, activity of binding [7]: 1.25
B7: 14H6E5B5C8G2 (antibody, V domains shown)
VH: QVHLQQPGAELVKPGASVKLSCKASGYNFNIYWINWVKQRPGQGLEWIGNIYPSSISTNYNEKFKTKATLTVDKSSNTVYMQFSSLTSEDSAVYYCARSEGTYYGGRYEGDWFGYWGQGTLVTVSA
VL: DIQMTQTTSSLSASLGDRVTISCRASQDIRNYLNWYQQKPDGTVKLLIYFTSTLHSGVPSRFSGSGSGTDYSLTISNLEQEDIATYFCQQGNTLPWTFGGGTKLEIK

EC50 [1]: 0.093 nM
IC50 [8]: 5.54 nM
IC50 [2]: 5.48 nM
IC50 [3]: 9.98 nM
EC50 [9]: 0.16 nM
EC50 [10]: 0.14 nM
EC50 [11]: 0.14 nM
EC50 [12]: 0.099 nM
EC50 [13]: 0.099 nM
EC50 [14]: 0.1 nM
IC50 [15]: 5.7 nM
B8: human-murine chimeric antibody mab14c (antibody, V domains shown)
VH: QVHLQQPGAELVKPGASVKLSCKASGYNFNIYWINWVKQRPGQGLEWIGNIYPSSISTNYNEKFKTKATLTVDKSSNTVYMQFSSLTSEDSAVYYCARSEGTYYGGRYEGDWFGYWGQGTLVTVSA
VL: DIQMTQTTSSLSASLGDRVTISCRASQDIRNYLNWYQQKPDGTVKLLIYFTSTLHSGVPSRFSGSGSGTDYSLTISNLEQEDIATYFCQQGNTLPWTFGGGTKLEIKR

From patent US12577303B2
